According to the Human Domainome abundance scans (Beltran et al. 2025):
± gives the uncertainty stated by the source.

B1: Lysine-specific demethylase 5C, residues 319 to 373; numbered along this chain, P41229 (parent)
chain: AQFIESYVCRMCSRGDEDDKLLLCDGCDDNYHIFCLLPPLPEIPKGVWRCPKCVM

Variants of: B1
Test: abundance fitness (aPCA) (normalised: wild type 0, dead -1); higher = more abundant; growth selection in yeast, the domain comes from the species named
Details: Homo sapiens

| Variant | abundance fitness |
| --- | --- |
| W48Y | -0.568 ± 0.34 |
| W48T | -1.05 ± 0.25 |
| W48Q | -0.566 ± 0.17 |
| W48S | -0.839 ± 0.15 |
| W48H | -0.811 ± 0.37 |
| W48R | -0.611 ± 0.13 |
| W48F | -0.253 ± 0.22 |
| W48D | -0.686 ± 0.46 |
| W48N | -0.853 ± 0.41 |
| V54Y | -0.064 ± 0.26 |
| V54C | -0.097 ± 0.25 |
| V54M | -0.145 ± 0.19 |
| V54I | 0.017 ± 0.12 |
| V54W | -0.836 ± 0.36 |
| V54R | -0.131 ± 0.13 |
| V54E | -0.367 ± 0.22 |
| V54A | -0.151 ± 0.11 |
| V54H | 0.002 ± 0.29 |
| V54Q | -0.54 ± 0.26 |
| V54L | -0.196 ± 0.15 |
| V54N | -0.262 ± 0.28 |
| V54G | -0.27 ± 0.13 |
| V54F | -0.479 ± 0.24 |
| V54K | -0.024 ± 0.21 |
| V54S | -0.261 ± 0.14 |
| K52Y | -0.286 ± 0.24 |

| Variant | abundance fitness |
| --- | --- |
| K52R | 0.007 ± 0.096 |
| K52F | -0.14 ± 0.23 |
| K52V | -0.123 ± 0.12 |
| K52L | -0.282 ± 0.12 |
| K52A | 0.02 ± 0.12 |
| K52W | -0.364 ± 0.16 |
| K52S | -0.183 ± 0.12 |
| K52T | 0.018 ± 0.13 |
| K52P | 0.049 ± 0.17 |
| K52I | 0.006 ± 0.21 |
| K52Q | -0.065 ± 0.19 |
| K52D | 0.095 ± 0.17 |
| K52E | -0.23 ± 0.15 |
| K52M | -0.611 ± 0.27 |
| K52N | -0.032 ± 0.21 |
| K52H | -0.184 ± 0.2 |
| K52G | -0.024 ± 0.085 |
| C50V | -1.05 ± 0.19 |
| C50Q | -0.71 ± 0.22 |
| C50P | -0.987 ± 0.46 |
| C50W | -0.823 ± 0.22 |
| C50N | -0.927 ± 0.48 |
| C50D | -0.841 ± 0.25 |
| C50T | -1.05 ± 0.39 |
| C50R | -0.926 ± 0.14 |
| C50K | -1 ± 0.27 |

| Variant | abundance fitness |
| --- | --- |
| C50L | -0.702 ± 0.14 |
| C50G | -1.01 ± 0.15 |
| C50F | -0.421 ± 0.23 |
| C50M | -1.17 ± 0.44 |
| C50E | -0.992 ± 0.24 |
| C50Y | -0.761 ± 0.28 |
| C50A | -0.887 ± 0.19 |
| C50I | -0.757 ± 0.35 |
| P51M | -0.092 ± 0.16 |
| P51C | -0.427 ± 0.19 |
| P51D | 0.009 ± 0.19 |
| P51I | -0.175 ± 0.19 |
| P51K | 0.131 ± 0.19 |
| P51Q | -0.136 ± 0.16 |
| P51V | -0.153 ± 0.13 |
| P51S | 0.138 ± 0.11 |
| P51A | -0.258 ± 0.17 |
| P51H | -0.015 ± 0.17 |
| P51L | -0.671 ± 0.14 |
| P51T | -0.467 ± 0.17 |
| P51G | -0.494 ± 0.18 |
| P51Y | -0.312 ± 0.26 |
| P51F | -0.048 ± 0.2 |
| V47D | -0.064 ± 0.16 |
| V47Y | -0.058 ± 0.19 |
| V47S | 0.081 ± 0.12 |

| Variant | abundance fitness |
| --- | --- |
| V47C | -0.213 ± 0.2 |
| V47H | -0.064 ± 0.22 |
| V47G | -0.061 ± 0.091 |
| V47L | -0.359 ± 0.16 |
| V47I | -0.132 ± 0.18 |
| V47M | -0.157 ± 0.18 |
| V47T | -0.101 ± 0.15 |
| V47W | -0.473 ± 0.18 |
| V47N | -0.052 ± 0.19 |
| V47F | 0.082 ± 0.23 |
| V47A | -0.241 ± 0.13 |
| V47E | -0.142 ± 0.14 |
| V47K | 0.154 ± 0.16 |
| V47Q | 0.208 ± 0.2 |
| V47P | -0.247 ± 0.24 |
| V47R | 0.044 ± 0.087 |
| M55V | 0.015 ± 0.17 |
| M55I | -0.346 ± 0.44 |
| M55A | -0.035 ± 0.41 |
| M55T | -0.183 ± 0.31 |
| M55G | -0.61 ± 0.24 |
| M55S | 0.295 ± 0.24 |
| M55L | -0.154 ± 0.18 |
| M55P | 0.446 ± 0.44 |
